According to patent US20100104554:

Legend:
[1] = target: T1, recombinant human cathepsin S propeptide (residues 17-113) with N-terminal hexahistidine tag, expressed from pQE30
T1 chain: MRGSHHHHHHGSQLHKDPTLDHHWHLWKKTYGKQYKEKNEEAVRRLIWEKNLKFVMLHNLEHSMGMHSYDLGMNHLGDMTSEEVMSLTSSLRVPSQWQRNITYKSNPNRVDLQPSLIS

B1: human cathepsin S (Calbiochem) (protein)
chain: LPDSVDWREKGCVTEVKYQGSCGACWAFSAVGALEAQLKLKTGKLVSLSAQNLVDCSTEKYGNKGCNGGFMTTAFQYIIDNKGIDSDASYPYKAMDLKCQYDSKYRAATCSKYTELPYGREDVLKEAVANKGPVSVGVDARHPSFFLYRSGVYYEPSCTQNVNHGVLVVGYGDLNGKEYWLVKNSWGHNFGEEGYIRMARNKGNHCGIASFPSYPEI
For B1, the “hydrolysis of Z-VVR-AMC by CatS (fluorometric assay)” value (Fc-control protein) was “The Fc-control protein (200 nM) had no discernable effects on CatS activity”, the “elastinolytic turnover of Elastin-DQ by CatS over a 60 minute incubation” value [1] was “the inventors were able to demonstrate inhibition of this activity” and the “hydrolysis of Cbz-Val-Val-Arg-AMC by CatS (fluorometric assay), rCatSPP 0 nM to 500 nM” value [1] was “the dose-dependent inhibition of CatS activity was observed”.
